Assay results from the supplement of paper PMC7877785.
± gives the uncertainty stated by the source.

Experiment: self-splicing fitness, log relative to wild type (ln ratio); higher = more splicing; Tetrahymena group I intron in knt gene, E. coli kanamycin selection, DiMSum; sequences stand for … in CUCUCU…GGAGGGAAAAGUUAUCAGGCAUGCACCUGGUAGCUAGUCUUUAAACCAAUAGAUUGCAUCGGUUUAAAAGGCAAGACCGUCAAAUUGCGGGAAAGGGGUCAACAGCCGUUCAGUACCAAGUCUCAGGGGAAACUUUGAGAUGGCCUUGCAAAGGGUAUGGUAAUAAGCUGACGGACAUGGUCCUAACCACGCAGCCAAGUCCUAAGUCAACAGAUCUUCUGUUGAUAUGGAUGCAGUUCACAGACUAAAUGUCGGUCGGGGAAGAUGUAUUCUUCUCAUAAGAUAUAGUCGGACCUCUCCUUAAUGGGAGCUAGCGGAUGAAGUGAUGCAACACUGGAGCCGCUGGGAACUAAUUUGUAUGCGAAAGUAUAUUGAUUAGUUUUGGAGUACUCGUGGUCG
In short: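 DiMSum derived fitness as the error-weighted combination of fold changes across replicates, kanamycin versus no kanamycin, normalised to wild type. E. coli BL21(DE3) held the library, which randomised all eight P1ex-region intron nucleotides within the knt kanamycin-resistance gene on pET-22b(+). Six replicate transformations grew overnight at 37°C or 30°C on LB agar with or without 25 μg/mL kanamycin, also containing 100 μg/mL carbenicillin, 50 μM IPTG and 0.2% rhamnose, and pooled colonies were amplicon-sequenced on an Illumina HiSeq 2500.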

Sequence | self-splicing fitness (ln) (30 °C) | self-splicing fitness (ln) (37 °C)
GACCAGCAAUAUUACGUCAA | -2.51 ± 0.18 | -1.06 ± 0.1
GACCAGCAAUAUUACGUCGA | -1.44 ± 0.078 | -0.592 ± 0.078
GACCAGCAAUAUUACGUCGG | -2.79 ± 0.21 | -1.98 ± 0.28
GACCAGCAAUAUUACGUGCC | -0.32 ± 0.11 | -0.217 ± 0.13
GACCAGCAAUAUUACGUGCU | -2.85 ± 0.12 | -2.63 ± 0.21
GACGAGCAAUAUUACGAAGU | -3.26 ± 0.22 | -2.57 ± 0.26
GACGAGCAAUAUUACGAUCA | -2.22 ± 0.36 | -0.86 ± 0.23
GACGAGCAAUAUUACGCCGC | -2.06 ± 0.16 | -1.72 ± 0.38
GACGAGCAAUAUUACGCGUA | -1.82 ± 0.12 | -1.95 ± 0.098
GACGAGCAAUAUUACGCUAA | -2.64 ± 0.35 | -2.25 ± 0.31
GACGAGCAAUAUUACGCUCG | -1.59 ± 0.35 | -1.6 ± 0.33
GACGAGCAAUAUUACGGAAU | -3.93 ± 0.28 | -0.331 ± 0.16
GACGAGCAAUAUUACGGCUA | -0.73 ± 0.11 | -0.653 ± 0.11
GACGAGCAAUAUUACGUAGG | -3.47 ± 0.25 | -2.12 ± 0.22
GACGAGCAAUAUUACGUCGA | -1.82 ± 0.23 | –
GACGAGCAAUAUUACGUGCA | -3.06 ± 0.17 | -0.901 ± 0.16
GACGAGCAAUAUUACGUUAA | -3.77 ± 0.27 | -2.79 ± 0.25
GACGAGCAAUAUUACGUUAG | -3.02 ± 0.17 | -2.56 ± 0.19
GACUAGCAAUAUUACGACGU | -0.558 ± 0.085 | 0.328 ± 0.099
GACUAGCAAUAUUACGACUC | -0.54 ± 0.097 | 0.55 ± 0.14
GACUAGCAAUAUUACGAUGG | -3.49 ± 0.13 | -2.24 ± 0.12
GACUAGCAAUAUUACGCACG | -0.535 ± 0.068 | 0.219 ± 0.085
GACUAGCAAUAUUACGCAUA | -0.568 ± 0.1 | -0.145 ± 0.096
GACUAGCAAUAUUACGCCAA | – | -1.6 ± 0.29
GACUAGCAAUAUUACGCCUC | -0.374 ± 0.14 | -1.76 ± 0.16
